Source: the supplement of paper PMC11316812
± gives the standard deviation of the averaged measurements.

How the values were obtained:
[1] = system: MCF7; assay: percentage of EdU-negative (G0-arrested) nuclei per well, 72 h; higher = more G0 arrest; conditions: reference: sequence is the full UniProt precursor, the tested protein was the secreted form or ectodomain
[2] = system: hTERT-HMEC; assay: as above; conditions: reference: sequence is the full UniProt precursor, the tested protein was the secreted form or ectodomain
[3] = protein concentration 0.0225 µM
[4] = protein concentration 0.0357143 µM
[5] = protein concentration 0.357143 µM
[6] = protein concentration 0.0225714 µM
[7] = protein concentration 0.225714 µM
[8] = protein concentration 0.03125 µM
[9] = protein concentration 0.3125 µM
[10] = protein concentration 0.0195 µM
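Further: secreted proteins added to cultured cells, EdU pulse at the end, nuclei found by Hoechst imaging, EdU status from nuclear versus surrounding ring intensity ratio, PBS as neutral control.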

| Sequence | percentage of EdU-negative [1, 3] [%] | percentage of EdU-negative ([1]; protein concentration 0.225 µM) [%] | percentage of EdU-negative [2, 3] [%] | percentage of EdU-negative ([2]; protein concentration 0.225 µM) [%] | other results |
| --- | --- | --- | --- | --- | --- |
| MPRRGYSKPGSWGSFWAMLTLVGLVTHAAQRADVGGEAAGTSINHSQAVLQRLQELLRQGNASDVVLRVQAAGTDEVRVFHAHRLLLGLHSELFLELLSNQSEAVLQEPQDCAAVFDKFIRYLYCGELTVLLTQAIPLHRLATKYGVSSLQRGVADYMRAHLAGGAGPAVGWYHYAVGTGDEALRESCLQFLAWNLSAVAASTEWGAVSPELLWQLLQRSDLVLQDELELFHALEAWLGRARPPPAVAERALRAIRYPMIPPAQLFQLQARSAALARHGPAVADLLLQAYQFHAASPLHYAKFFDVNGSAFLPRNYLAPAWGAPWVINNPARDDRSTSFQTQLGPSGHDAGRRVTWNVLFSPRWLPVSLRPVYADAAGTALPAARPEDGRPRLVVTPASSGGDAAGVSFQKTVLVGARQQGRLLVRHAYSFHQSSEEAGDFLAHADLQRRNSEYLVENALHLHLIVKPVYHTLIRTPK [A6NE02] |  |  |  |  | percentage of EdU-negative ([1]; protein concentration 0.006 µM): 26.7 ± 0.63%; percentage of EdU-negative ([1]; protein concentration 0.06 µM): 26.1 ± 1.3%; percentage of EdU-negative ([2]; protein concentration 0.006 µM): 5.11 ± 0.82%; percentage of EdU-negative ([2]; protein concentration 0.06 µM): 10 ± 0.96% |
| MPMFIVNTNVPRASVPDGFLSELTQQLAQATGKPPQYIAVHVVPDQLMAFGGSSEPCALCSLHSIGKIGGAQNRSYSKLLCGLLAERLRISPDRVYINYYDMNAANVGWNNSTFA | 24.4 ± 1.2 | 26.3 ± 2 | 4.84 ± 1.4 | 6.38 ± 1.7 |  |
| MLDWRLASAHFILAVTLTLWSSGKVLSVDVTTTEAFDSGVIDVQSTPTVREEKSATDLTAKLLLLDELVSLENDVIETKKKRSFSGFGSPLDRLSAGSVDHKGKQRKVVDHPKRRFGIPMDRIGRNRLSNSRG | 23.9 ± 2 | 24.2 ± 1.3 | 5.01 ± 0.71 | 5.5 ± 0.22 |  |
| MESKGASSCRLLFCLLISATVFRPGLGWYTVNSAYGDTIIIPCRLDVPQNLMFGKWKYEKPDGSPVFIAFRSSTKKSVQYDDVPEYKDRLNLSENYTLSISNARISDEKRFVCMLVTEDNVFEAPTIVKVFKQPSKPEIVSKALFLETEQLKKLGDCISEDSYPDGNITWYRNGKVLHPLEGAVVIIFKKEMDPVTQLYTMTSTLEYKTTKADIQMPFTCSVTYYGPSGQKTIHSEQAVFDIYYPTEQVTIQVLPPKNAIKEGDNITLKCLGNGNPPPEEFLFYLPGQPEGIRSSNTYTLTDVRRNATGDYKCSLIDKKSMIASTAITVHYLDLSLNPSGEVTRQIGDALPVSCTISASRNATVVWMKDNIRLRSSPSFSSLHYQDAGNYVCETALQEVEGLKKRESLTLIVEGKPQIKMTKKTDPSGLSKTIICHVEGFPKPAIQWTITGSGSVINQTEESPYINGRYYSKIIISPEENVTLTCTAENQLERTVNSLNVSAISIPEHDEADEISDENREKVNDQAKLIVGIVVGLLLAALVAGVVYWLYMKKSKTASKHVNKDLGNMEENKKLEENNHKTEA |  |  |  |  | percentage of EdU-negative [1, 4]: 26.8 ± 1.2%; percentage of EdU-negative [1, 5]: 25.13 ± 0.15%; percentage of EdU-negative [2, 4]: 4.83 ± 0.2%; percentage of EdU-negative [2, 5]: 5.08 ± 0.77% |
| MPRLSLLLPLLLLLLLPLLPPLSPSLGIRDVGGRRPKCGPCRPEGCPAPAPCPAPGISALDECGCCARCLGAEGASCGGRAGGRCGPGLVCASQAAGAAPEGTGLCVCAQRGTVCGSDGRSYPSVCALRLRARHTPRAHPGHLHKARDGPCEFAPVVVVPPRSVHNVTGAQVGLSCEVRAVPTPVITWRKVTKSPEGTQALEELPGDHVNIAVQVRGGPSDHEATAWILINPLRKEDEGVYQCHAANMVGEAESHSTVTVLDLSKYRSFHFPAPDDRM [Q8WX77] |  |  |  |  | percentage of EdU-negative [1, 6]: 27.4 ± 0.89%; percentage of EdU-negative [1, 7]: 29.2 ± 0.86%; percentage of EdU-negative [2, 6]: 4.78 ± 0.086%; percentage of EdU-negative [2, 7]: 4.6 ± 1.4% |
| MAAAAMAAAAGGGAGAARSLSRFRGCLAGALLGDCVGSFYEAHDTVDLTSVLRHVQSLEPDPGTPGSERTEALYYTDDTAMARALVQSLLAKEAFDEVDMAHRFAQEYKKDPDRGYGAGVVTVFKKLLNPKCRDVFEPARAQFNGKGSYGNGGAMRVAGISLAYSSVQDVQKFARLSAQLTHASSLGYNGAILQALAVHLALQGESSSEHFLKQLLGHMEDLEGDAQSVLDARELGMEERPYSSRLKKIGELLDQASVTREEVVSELGNGIAAFESVPTAIYCFLRCMEPDPEIPSAFNSLQRTLIYSISLGGDTDTIATMAGAIAGAYYGMDQVPESWQQSCEGYEETDILAQSLHRVFQKS [Q9NX46] | 24.5 ± 2.2 | 29.1 ± 3.5 | 4.73 ± 1.1 | 7.08 ± 0.11 |  |
| MAPAGVSLRATILCLLAWAGLAAGDRVYIHPFHLVIHNESTCEQLAKANAGKPKDPTFIPAPIQAKTSPVDEKALQDQLVLVAAKLDTEDKLRAAMVGMLANFLGFRIYGMHSELWGVVHGATVLSPTAVFGTLASLYLGALDHTADRLQAILGVPWKDKNCTSRLDAHKVLSALQAVQGLLVAQGRADSQAQLLLSTVVGVFTAPGLHLKQPFVQGLALYTPVVLPRSLDFTELDVAAEKIDRFMQAVTGWKTGCSLMGASVDSTLAFNTYVHFQGKMKGFSLLAEPQEFWVDNSTSVSVPMLSGMGTFQHWSDIQDNFSVTQVPFTESACLLLIQPHYASDLDKVEGLTFQQNSLNWMKKLSPRTIHLTMPQLVLQGSYDLQDLLAQAELPAILHTELNLQKLSNDRIRVGEVLNSIFFELEADEREPTESTQQLNKPEVLEVTLNRPFLFAVYDQSATALHFLGRVANPLSTA |  |  |  |  | percentage of EdU-negative [1, 8]: 23.9 ± 1.3%; percentage of EdU-negative [1, 9]: 26.5 ± 1.4%; percentage of EdU-negative [2, 8]: 5.56 ± 0.51%; percentage of EdU-negative [2, 9]: 5.41 ± 0.61% |
| MPRAPAPLYACLLGLCALLPRLAGLNICTSGSATSCEECLLIHPKCAWCSKEDFGSPRSITSRCDLRANLVKNGCGGEIESPASSFHVLRSLPLSSKGSGSAGWDVIQMTPQEIAVNLRPGDKTTFQLQVRQVEDYPVDLYYLMDLSLSMKDDLDNIRSLGTKLAEEMRKLTSNFRLGFGSFVDKDISPFSYTAPRYQTNPCIGYKLFPNCVPSFGFRHLLPLTDRVDSFNEEVRKQRVSRNRDAPEGGFDAVLQAAVCKEKIGWRKDALHLLVFTTDDVPHIALDGKLGGLVQPHDGQCHLNEANEYTASNQMDYPSLALLGEKLAENNINLIFAVTKNHYMLYKNFTALIPGTTVEILDGDSKNIIQLIINAYNSIRSKVELSVWDQPEDLNLFFTATCQDGVSYPGQRKCEGLKIGDTASFEVSLEARSCPSRHTEHVFALRPVGFRDSLEVGVTYNCTCGCSVGLEPNSARCNGSGTYVCGLCECSPGYLGTRCECQDGENQSVYQNLCREAEGKPLCSGRGDCSCNQCSCFESEFGKIYGPFCECDNFSCARNKGVLCSGHGECHCGECKCHAGYIGDNCNCSTDISTCRGRDGQICSERGHCLCGQCQCTEPGAFGEMCEKCPTCPDACSTKRDCVECLLLHSGKPDNQTCHSLCRDEVITWVDTIVKDDQEAVLCFYKTAKDCVMMFTYVELPSGKSNLTVLREPECGNTPNAMTILLAVVGSILLVGLALLAIWKLLVTIHDRREFAKFQSERSRARYEMASNPLYRKPISTHTVDFTFNKFNKSYNGTVD | 25.2 ± 1.3 | 26 ± 1.5 | 5.13 ± 0.59 | 7.6 ± 1.1 |  |
| MVAGSDAGRALGVLSVVCLLHCFGFISCFSQQIYGVVYGNVTFHVPSNVPLKEVLWKKQKDKVAELENSEFRAFSSFKNRVYLDTVSGSLTIYNLTSSDEDEYEMESPNITDTMKFFLYVLESLPSPTLTCALTNGSIEVQCMIPEHYNSHRGLIMYSWDCPMEQCKRNSTSIYFKMENDLPQKIQCTLSNPLFNTTSSIILTTCIPSSGHSRHRYALIPIPLAVITTCIVLYMNGILKCDRKPDRTNSN | 27.3 ± 0.7 | 26.7 ± 1.6 | 5.39 ± 0.14 | 5.59 ± 0.33 |  |
| MKLLFPIFASLMLQYQVNTEFIGLRRCLMGLGRCRDHCNVDEKEIQKCKMKKCCVGPKVVKLIKNYLQYGTPNVLNEDVQEMLKPAKNSSAVIQRKHILSVLPQIKSTSFFANTNFVIIPNATPMNSATISTMTPGQITYTATSTKSNTKESRDSATASPPPAPPPPNILPTPSLELEEAEEQ [Q9H1M3] | 23.2 ± 1.2 | 25.3 ± 1.1 | 4.86 ± 0.34 | 4.66 ± 0.73 |  |
| MKLHYVAVLTLAILMFLTWLPESLSCNKALCASDVSKCLIQELCQCRPGEGNCSCCKECMLCLGALWDECCDCVGMCNPRNYSDTPPTSKSTVEELHEPIPSLFRALTEGDTQLNWNIVSFPVAEELSHHENLVSFLETVNQPHHQNVSVPSNNVHAPYSSDKEHMCTVVYFDDCMSIHQCKISCESMGASKYRWFHNACCECIGPECIDYGSKTVKCMNCMF [Q9GZX9] | 23.8 ± 4.6 | 28.8 ± 0.54 | 4.64 ± 0.11 | 12.59 ± 0.086 |  |
| MIIDSSRIPSFTQLHSTMTRAPLLLLCVALVLLGHVNGATVRNEDKWKPLNNPRNRDLFFRRLQAYFKGRGLDLGTFPNPFPTNENPRPLSFQSELTASASADYEEQKNSFHNYLKG [Q6UXQ4] |  |  |  |  | percentage of EdU-negative [1, 10]: 24.6 ± 2.1%; percentage of EdU-negative ([1]; protein concentration 0.195 µM): 25.2 ± 1%; percentage of EdU-negative [2, 10]: 4.53 ± 0.63%; percentage of EdU-negative ([2]; protein concentration 0.195 µM): 7.36 ± 0.4% |
| MGKSASKQFHNEVLKAHNEYRQKHGVPPLKLCKNLNREAQQYSEALASTRILKHSPESSRGQCGENLAWASYDQTGKEVADRWYSEIKNYNFQQPGFTSGTGHFTAMVWKNTKKMGVGKASASDGSSFVVARYFPAGNVVNEGFFEENVLPPKK [Q9H4G4] |  |  |  |  | percentage of EdU-negative [1, 4]: 25.6 ± 0.71%; percentage of EdU-negative [1, 5]: 24.5 ± 0.79%; percentage of EdU-negative [2, 4]: 4.55 ± 0.31%; percentage of EdU-negative [2, 5]: 7.6 ± 0.95% |
